In IntAct's records for PubMed 18172500:

B1: Aprataxin and PNK-like factor (Homo sapiens), Q8IW19 (parent)
chain: MSGGFELQPRDGGPRVALAPGETVIGRGPLLGITDKRVSRRHAILEVAGGQLRIKPIHTNPCFYQSSEKSQLLPLKPNLWCYLNPGDSFSLLVDKYIFRILSIPSEVEMQCTLRNSQVLDEDNILNETPKSPVINLPHETTGASQLEGSTEIAKTQMTPTNSVSFLGENRDCNKQQPILAERKRILPTWMLAEHLSDQNLSVPAISGGNVIQGSGKEEICKDKSQLNTTQQGRRQLISSGSSENTSAEQDTGEECKNTDQEESTISSKEMPQSFSAITLSNTEMNNIKTNAQRNKLPIEELGKVSKHKIATKRTPHKEDEAMSCSENCSSAQGDSLQDESQGSHSESSSNPSNPETLHAKATDSVLQGSEGNKVKRTSCMYGANCYRKNPVHFQHFSHPGDSDYGGVQIVGQDETDDRPECPYGPSCYRKNPQHKIEYRHNTLPVRNVLDEDNDNVGQPNEYDLNDSFLDDEEEDYEPTDEDSDWEPGKEDEEKEDVEELLKEAKRFMKRK
B2: E3 ubiquitin-protein ligase CHFR (Homo sapiens), Q96EP1-1 (parent)
chain: MERPEEGKQSPPPQPWGRLLRLGAEEGEPHVLLRKREWTIGRRRGCDLSFPSNKLVSGDHCRIVVDEKSGQVTLEDTSTSGTVINKLKVVKKQTCPLQTGDVIYLVYRKNEPEHNVAYLYESLSEKQGMTQESFEANKENVFHGTKDTSGAGAGRGADPRVPPSSPATQVCFEEPQPSTSTSDLFPTASASSTEPSPAGRERSSSCGSGGGGISPKGSGPSVASDEVSSFASALPDRKTASFSSLEPQDQEDLEPVKKKMRGDGDLDLNGQLLVAQPRRNAQTVHEDVRAAAGKPDKMEETLTCIICQDLLHDCVSLQPCMHTFCAACYSGWMERSSLCPTCRCPVERICKNHILNNLVEAYLIQHPDKSRSEEDVQSMDARNKITQDMLQPKVRRSFSDEEGSSEDLLELSDVDSESSDISQPYVVCRQCPEYRRQAAQPPHCPAPEGEPGAPQALGDAPSTSVSLTTAVQDYVCPLQGSHALCTCCFQPMPDRRAEREQDPRVAPQQCAVCLQPFCHLYWGCTRTGCYGCLAPFCELNLGDKCLDGVLNNNSYESDILKNYLATRGLTWKNMLTESLVALQRGVFLLSDYRVTGDTVLCYCCGLRSFRELTYQYRQNIPASELPVAVTSRPDCYWGRNCRTQVKAHHAMKFNHICEQTRFKN

Variants of: B1
Details: with parp1_human PARP1, P09874
Target sequence in this assay (P09874 whole entry): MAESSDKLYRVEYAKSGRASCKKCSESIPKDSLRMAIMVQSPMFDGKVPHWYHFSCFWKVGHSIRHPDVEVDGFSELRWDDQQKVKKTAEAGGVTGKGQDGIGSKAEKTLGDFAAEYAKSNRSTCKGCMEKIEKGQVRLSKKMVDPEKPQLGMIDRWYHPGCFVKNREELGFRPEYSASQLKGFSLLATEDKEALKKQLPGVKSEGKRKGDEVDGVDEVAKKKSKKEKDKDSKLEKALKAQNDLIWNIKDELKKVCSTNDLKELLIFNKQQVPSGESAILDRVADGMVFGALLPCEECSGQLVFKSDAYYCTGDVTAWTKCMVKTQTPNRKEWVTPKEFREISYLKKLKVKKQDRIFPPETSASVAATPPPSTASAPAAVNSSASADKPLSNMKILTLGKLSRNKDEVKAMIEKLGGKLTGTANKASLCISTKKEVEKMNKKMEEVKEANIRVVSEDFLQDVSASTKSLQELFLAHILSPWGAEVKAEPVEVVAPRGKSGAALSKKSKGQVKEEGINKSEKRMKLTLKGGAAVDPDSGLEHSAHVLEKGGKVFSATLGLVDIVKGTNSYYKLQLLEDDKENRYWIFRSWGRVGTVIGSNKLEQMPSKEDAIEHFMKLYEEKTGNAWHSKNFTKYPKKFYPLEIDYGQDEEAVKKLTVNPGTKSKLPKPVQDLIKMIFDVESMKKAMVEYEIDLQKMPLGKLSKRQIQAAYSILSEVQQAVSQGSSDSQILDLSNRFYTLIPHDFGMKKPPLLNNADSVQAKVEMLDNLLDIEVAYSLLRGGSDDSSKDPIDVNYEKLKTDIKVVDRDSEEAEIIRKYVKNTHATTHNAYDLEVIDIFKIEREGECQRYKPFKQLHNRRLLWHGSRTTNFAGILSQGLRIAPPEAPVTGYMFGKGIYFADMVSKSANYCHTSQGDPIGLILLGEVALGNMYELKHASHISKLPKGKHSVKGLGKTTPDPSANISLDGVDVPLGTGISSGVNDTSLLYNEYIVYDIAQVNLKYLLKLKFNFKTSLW

Variant	effect of a mutation on the interaction
C379A;C385A;C421A;C427A	disrupting interaction

Variants of: B2
Details: with parp1_human PARP1, P09874
Target sequence in this assay (P09874 whole entry): as above

Variant	effect of a mutation on the interaction
C635A;C641A	disrupting interaction
